This is an account of results in paper PMC13403136.

The target in data set [1] is T1, AsCas12a (UniProt U2UMQ6 1-1307). As to the kind of experiment: BLI. Background: Biolayer interferometry detects binding as a change in optical thickness at a sensor tip.
The target of data set [2] is T1, AsCas12a. The data set can be described thus: EMSA.

In turn, AGCACCCAGTCCGCCCTGAGTAGATGTGAATCATCTTTAAT (ssDNA) [AsCas12a GFP ΨDNA w/ biotin] yielded a Kd in data set [1] of 24.5 nM.

B1: AsCas12a ΨDNA + RNA target (EMSA, FAM ΨDNA) (DNA:RNA)
DNA: AGCACCCAGTCCGCCCTGAGTAGATGTGAATCATCTTTAAT
RNA: CUCAGGGCGGACUGGGUGCU
In the case of B1, the binding result in data set [2] is “binds”.

B2: AsCas12a ΨDNA + RNA target (EMSA) (DNA:RNA)
DNA: B1 DNA
RNA: CUCAGGGCGGACUGGGUGCU
Turning to B2, in data set [2], the binding result is listed as “binds”.

Usually Kd stands for the free concentration of one partner at which half of the binding sites on the other are occupied at equilibrium, for simple one-to-one binding. High values mean lower affinity, low ones higher affinity.
